According to patent US20250388669A1 (published 2025):

Target: T1, B7H3 (human, UniProt Q5ZPR3 29-466, limits assumed)
T1 sequence (looked up): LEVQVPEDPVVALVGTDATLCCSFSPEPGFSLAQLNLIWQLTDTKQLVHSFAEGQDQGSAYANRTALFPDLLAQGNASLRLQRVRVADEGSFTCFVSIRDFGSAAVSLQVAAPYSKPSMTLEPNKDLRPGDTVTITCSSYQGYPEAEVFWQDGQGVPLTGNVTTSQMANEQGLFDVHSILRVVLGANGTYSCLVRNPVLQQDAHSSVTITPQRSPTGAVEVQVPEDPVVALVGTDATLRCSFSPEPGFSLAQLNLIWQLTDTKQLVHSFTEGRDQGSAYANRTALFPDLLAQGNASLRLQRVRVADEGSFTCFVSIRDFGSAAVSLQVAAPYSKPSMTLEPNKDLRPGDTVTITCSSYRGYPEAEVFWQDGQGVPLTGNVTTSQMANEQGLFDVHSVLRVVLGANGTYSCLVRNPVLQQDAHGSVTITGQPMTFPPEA
Test: ELISA or FCM (Example 2)

B1: Ly2364 (other)
chain 1: QVQLVQSGAEVKKPGASVKVSCKASGYTFTSYVMHWVRQKPGQGLEWIGYINPYNEGTESTDKFKGRATMTSDKSTSTVYMELSSLRSEDTAVYYCASIYYGYEGTYFGVWGQGTLVTVSSASTKGPSVFPLAPSSKSTSGGTAALGCLVKDYFPEPVTVSWNSGALTSGVHTFPAVLQSSGLYSLSSVVTVPSSSLGTQTYICNVNHKPSNTKVDKKVEPKSCGGGGSGGGGSGGGGSGGGGSGGGGSEVQLVESGGGLVQPGGSLRLSCAASGFTFSTYAMNWVRQAPGKGLEWVGRIRSKYNNYATYYADSVKGRFTISRDDSKNSLYLQMNSLKTEDTAVYYCVRHGNFGNSYVSWFAYWGQGTLVTVSSGGGGSDKTHTCPPCPAPEAAGPSVFLFPPKPKDTLMISRTPEVTCVVVDVSHEDPEVKFNWYVDGVEVHNAKTKPREEQYNSTYRVVSVLTVLHQDWLNGKEYKCKVSNKALPAPIEKTISKAKGQPREPQVYTLPPSREEMTKNQVSLWCLVKGFYPSDIAVEWESNGQPENNYKTTPPVLDSDGSFFLYSKLTVDKSRWQQGNVFSCSVMHEALHNHYTQKSLSLSPGGGGGSGGGGSGGGGSGGGGSQVQLVQSGAEVKKPGASVKVSCKASGYTFAGFEMHWVRQAPGQGLEWMGAIDPKTGGTDYNQKFKDRVTMTRDTSISTAYMELSRLRSDDTAVYYCARDLGYFDVWGQGTLVTVSS
chain 2: QVQLVQSGAEVKKPGASVKVSCKASGYTFTSYVMHWVRQKPGQGLEWIGYINPYNEGTESTDKFKGRATMTSDKSTSTVYMELSSLRSEDTAVYYCASIYYGYEGTYFGVWGQGTLVTVSSASTKGPSVFPLAPSSKSTSGGTAALGCLVKDYFPEPVTVSWNSGALTSGVHTFPAVLQSSGLYSLSSVVTVPSSSLGTQTYICNVNHKPSNTKVDKKVEPKSCGGGGSGGGGSGGGGSGGGGSGGGGSQAVVTQEPSLTVSPGGTVTLTCRSSTGAVTTSNYANWVQQKPGQAPRGLIGGTNKRAPWTPARFSGSLLGGKAALTITGAQAEDEADYYCALWYSNLWVFGGGTKLTVLGGGGSDKTHTCPPCPAPEAAGPSVFLFPPKPKDTLMISRTPEVTCVVVDVSHEDPEVKFNWYVDGVEVHNAKTKPREEQYNSTYRVVSVLTVLHQDWLNGKEYKCKVSNKALPAPIEKTISKAKGQPREPQVYTLPPSREEMTKNQVSLSCAVKGFYPSDIAVEWESNGQPENNYKTTPPVLDSDGSFFLVSKLTVDKSRWQQGNVFSCSVMHEALHNRFTQKSLSLSPGGGGGSGGGGSGGGGSGGGGSDIQMTQSPSSLSASVGDRVTITCRASQDIRSNLNWYQQKPGGAVKLLIYYTSRLHSGVPSRFSGSGSGTDYTLTISSLQPEDFATYFCQQSEKLPRTFGGGTKVEIR
light: EIVLTQSPATLSLSPGERATLSCRASSSVSYMHWYQQKPGQAPRPWIYATSNLASGIPARFSGSRSGTDYTLTISSLEPEDFAVYYCQQWSSNTLTFGGGTKVEIKRTVAAPSVFIFPPSDEQLKSGTASVVCLLNNFYPREAKVQWKVDNALQSGNSQESVTEQDSKDSTYSLSSTLTLSKADYEKHKVYACEVTHQGLSSPVTKSFNRGEC
notes: Tri-specific antibody: B7H3 Fabs, central CD3 Fv, terminal CD137 Fv; Flexible linker is (G4S)5
  binding result: binds

B2: Ly2365 (other)
chain 1: QVQLVQSGAEVKKPGASVKVSCKASGYTFTSYVMHWVRQKPGQGLEWIGYINPYNEGTESTDKFKGRATMTSDKSTSTVYMELSSLRSEDTAVYYCASIYYGYEGTYFGVWGQGTLVTVSSASTKGPSVFPLAPSSKSTSGGTAALGCLVKDYFPEPVTVSWNSGALTSGVHTFPAVLQSSGLYSLSSVVTVPSSSLGTQTYICNVNHKPSNTKVDKKVEPKSCGGGGSGGGGSGGGGSEVQLVESGGGLVQPGGSLRLSCAASGFTFSTYAMNWVRQAPGKGLEWVGRIRSKYNNYATYYADSVKGRFTISRDDSKNSLYLQMNSLKTEDTAVYYCVRHGNFGNSYVSWFAYWGQGTLVTVSSGGGGSDKTHTCPPCPAPEAAGPSVFLFPPKPKDTLMISRTPEVTCVVVDVSHEDPEVKFNWYVDGVEVHNAKTKPREEQYNSTYRVVSVLTVLHQDWLNGKEYKCKVSNKALPAPIEKTISKAKGQPREPQVYTLPPSREEMTKNQVSLWCLVKGFYPSDIAVEWESNGQPENNYKTTPPVLDSDGSFFLYSKLTVDKSRWQQGNVFSCSVMHEALHNHYTQKSLSLSPGGGGGSGGGGSGGGGSGGGGSQVQLVQSGAEVKKPGASVKVSCKASGYTFAGFEMHWVRQAPGQGLEWMGAIDPKTGGTDYNQKFKDRVTMTRDTSISTAYMELSRLRSDDTAVYYCARDLGYFDVWGQGTLVTVSS
chain 2: QVQLVQSGAEVKKPGASVKVSCKASGYTFTSYVMHWVRQKPGQGLEWIGYINPYNEGTESTDKFKGRATMTSDKSTSTVYMELSSLRSEDTAVYYCASIYYGYEGTYFGVWGQGTLVTVSSASTKGPSVFPLAPSSKSTSGGTAALGCLVKDYFPEPVTVSWNSGALTSGVHTFPAVLQSSGLYSLSSVVTVPSSSLGTQTYICNVNHKPSNTKVDKKVEPKSCGGGGSGGGGSGGGGSQAVVTQEPSLTVSPGGTVTLTCRSSTGAVTTSNYANWVQQKPGQAPRGLIGGTNKRAPWTPARFSGSLLGGKAALTITGAQAEDEADYYCALWYSNLWVFGGGTKLTVLGGGGSDKTHTCPPCPAPEAAGPSVFLFPPKPKDTLMISRTPEVTCVVVDVSHEDPEVKFNWYVDGVEVHNAKTKPREEQYNSTYRVVSVLTVLHQDWLNGKEYKCKVSNKALPAPIEKTISKAKGQPREPQVYTLPPSREEMTKNQVSLSCAVKGFYPSDIAVEWESNGQPENNYKTTPPVLDSDGSFFLVSKLTVDKSRWQQGNVFSCSVMHEALHNRFTQKSLSLSPGGGGGSGGGGSGGGGSGGGGSDIQMTQSPSSLSASVGDRVTITCRASQDIRSNLNWYQQKPGGAVKLLIYYTSRLHSGVPSRFSGSGSGTDYTLTISSLQPEDFATYFCQQSEKLPRTFGGGTKVEIR
light: EIVLTQSPATLSLSPGERATLSCRASSSVSYMHWYQQKPGQAPRPWIYATSNLASGIPARFSGSRSGTDYTLTISSLEPEDFAVYYCQQWSSNTLTFGGGTKVEIKRTVAAPSVFIFPPSDEQLKSGTASVVCLLNNFYPREAKVQWKVDNALQSGNSQESVTEQDSKDSTYSLSSTLTLSKADYEKHKVYACEVTHQGLSSPVTKSFNRGEC
notes: Tri-specific antibody: B7H3 Fabs, central CD3 Fv, terminal CD137 Fv; Flexible linker is (G4S)3
  binding result: binds

B3: Ly1612 (antibody, V domains shown)
VH: QVQLVQSGAEVKKPGASVKVSCKASGYTFTSYVMHWVRQKPGQGLEWIGYINPYNEGTESTDKFKGRATMTSDKSTSTVYMELSSLRSEDTAVYYCASIYYGYEGTYFGVWGQGTLVTVSS
VL: EIVLTQSPATLSLSPGERATLSCRASSSVSYMHWYQQKPGQAPRPWIYATSNLASGIPARFSGSRSGTDYTLTISSLEPEDFAVYYCQQWSSNTLTFGGGTKVEIK
notes: Parent mAb; also called Anti-B7H3 Ly1612; B7H3 mAb
  binding result: binds
